Experimental data taken from patent US20060223116.

Tests used:
[1] = system: T1, truncated GST-fusion T-bet protein, N-terminal fragment
T1 sequence (Q9UL17 whole entry, species assumed, looked up): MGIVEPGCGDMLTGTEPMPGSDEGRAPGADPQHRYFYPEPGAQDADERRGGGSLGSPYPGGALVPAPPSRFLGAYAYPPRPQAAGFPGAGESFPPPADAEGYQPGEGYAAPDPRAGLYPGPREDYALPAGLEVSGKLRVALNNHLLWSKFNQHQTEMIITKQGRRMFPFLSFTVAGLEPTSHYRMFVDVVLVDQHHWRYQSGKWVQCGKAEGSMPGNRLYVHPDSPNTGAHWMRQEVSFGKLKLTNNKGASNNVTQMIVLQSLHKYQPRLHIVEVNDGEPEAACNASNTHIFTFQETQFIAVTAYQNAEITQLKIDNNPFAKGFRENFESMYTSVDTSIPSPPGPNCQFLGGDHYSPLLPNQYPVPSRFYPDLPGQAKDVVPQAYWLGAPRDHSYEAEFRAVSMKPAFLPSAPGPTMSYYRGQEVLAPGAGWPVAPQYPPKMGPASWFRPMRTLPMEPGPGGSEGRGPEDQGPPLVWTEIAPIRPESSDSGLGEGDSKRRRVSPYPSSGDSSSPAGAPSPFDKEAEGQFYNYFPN

[2] = system: T2, truncated GST-fusion T-bet protein, C-terminal fragment
T2 sequence (Q9UL17 whole entry, species assumed, looked up): T1 sequence (Q9UL17 whole entry, species assumed, looked up)

B1: ITK-FLAG (full length IL-2 inducible T cell tyrosine kinase, FLAG-tagged) (enzyme, UniProt Q08881 1-620, looked up, species assumed)
chain: MNNFILLEEQLIKKSQQKRRTSPSNFKVRFFVLTKASLAYFEDRHGKKRTLKGSIELSRIKCVEIVKSDISIPCHYKYPFQVVHDNYLLYVFAPDRESRQRWVLALKEETRNNNSLVPKYHPNFWMDGKWRCCSQLEKLATGCAQYDPTKNASKKPLPPTPEDNRRPLWEPEETVVIALYDYQTNDPQELALRRNEEYCLLDSSEIHWWRVQDRNGHEGYVPSSYLVEKSPNNLETYEWYNKSISRDKAEKLLLDTGKEGAFMVRDSRTAGTYTVSVFTKAVVSENNPCIKHYHIKETNDNPKRYYVAEKYVFDSIPLLINYHQHNGGGLVTRLRYPVCFGRQKAPVTAGLRYGKWVIDPSELTFVQEIGSGQFGLVHLGYWLNKDKVAIKTIREGAMSEEDFIEEAEVMMKLSHPKLVQLYGVCLEQAPICLVFEFMEHGCLSDYLRTQRGLFAAETLLGMCLDVCEGMAYLEEACVIHRDLAARNCLVGENQVIKVSDFGMTRFVLDDQYTSSTGTKFPVKWASPEVFSFSRYSSKSDVWSFGVLMWEVFSEGKIPYENRSNSEVVEDISTGFRLYKPRLASTHVYQIMNHCWKERPEDRPAFSRLLRQLAEIAESGL
modifications: full-length FLAG tag
- in vitro kinase assay (32P-ATP, autoradiography) [1]: both the N and C terminal fragments but not the DNA binding domain, could be phosphorylated by the Tec kinases, ITK and RLK
- in vitro kinase assay (32P-ATP, autoradiography) [2]: both the N and C terminal fragments but not the DNA binding domain, could be phosphorylated by the Tec kinases, ITK and RLK
